T1: HMGB2 (Homo sapiens, UniProt P26583 1-209)
T1 sequence: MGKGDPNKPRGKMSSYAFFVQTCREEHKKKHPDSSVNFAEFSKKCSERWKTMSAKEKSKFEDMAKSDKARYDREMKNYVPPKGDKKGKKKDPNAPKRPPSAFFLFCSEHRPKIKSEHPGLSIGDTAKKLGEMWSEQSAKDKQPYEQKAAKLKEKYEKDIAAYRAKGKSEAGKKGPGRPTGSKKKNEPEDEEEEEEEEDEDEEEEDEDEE

T2: HMGN1 (Homo sapiens, UniProt P05114 1-100)
T2 sequence: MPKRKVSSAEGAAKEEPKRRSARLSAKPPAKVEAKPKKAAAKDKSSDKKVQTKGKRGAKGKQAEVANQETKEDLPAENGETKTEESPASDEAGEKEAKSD

B1: B2-M6 (structured_DNA)
DNA: GGGAGAGGGAGAGGGAGAGGG
B2: CT1 (G4-2) (structured_DNA)
DNA: GGTGACAGGGGTATGGGGAGGGG
B3: B2-M7 (structured_DNA)
DNA: GGGCCCTGGGAACGGGGAGGG
B4: N1C-3 (N1-C3) (structured_DNA)
DNA: GGGGAGGGGGAGGGGGGAGGGAGGGGAGG

Legend:
HMGB2 = molecular target: T1, HMGB2; assay: MST; MST, 50 nM labelled protein, 0.61 nM-20 uM oligo, 140 mM potassium phosphate pH 7.2 (6.7 for i-motif N1-3; CTCF oligo CD at pH 6.7), 10 mM NaCl in oligo stocks, 22 C; conditions: protein: commercial; tags: His; mixed-topology G4
HMGN1 [1] = molecular target: T2, HMGN1; assay: MST; positive control; MST, 50 nM labelled protein, 0.61 nM-20 uM oligo, 140 mM potassium phosphate pH 7.2 (6.7 for i-motif N1-3; CTCF oligo CD at pH 6.7), 10 mM NaCl in oligo stocks, 22 C; conditions: protein: commercial; tags: His; parallel G4
HMGN1 [2] = molecular target: T2, HMGN1; assay: MST; MST, 50 nM labelled protein, 0.61 nM-20 uM oligo, 140 mM potassium phosphate pH 7.2 (6.7 for i-motif N1-3; CTCF oligo CD at pH 6.7), 10 mM NaCl in oligo stocks, 22 C; conditions: protein: commercial; tags: His; parallel G4, partly intermolecular

Row | Binder | Kd (HMGB2) | further results
1 | B1 | 4000 ± 2000 nM | –
2 | B2 | – | Kd (HMGN1 [1]): 1600 ± 300 nM
3 | B3 | 1600 ± 600 nM | –
4 | B4 | – | Kd (HMGN1 [2]): 200 ± 100 nM

— paper PMC8269367, “DNA G-Quadruplexes Contribute to CTCF Recruitment”
